The target in this assay is MBECs (cultured cells). Nature of the assay: equilibrium titration on cultured MBECs; apparent affinity.

Numbering of substitutions follows the chain as printed.

This is an account of results in patent US20220204583A1 (published 2022).

B1: VLR-Fc-46 (Fc fusion)
chain: ACPSQCSCSGTTVDCSGKSLASVPTGIPTTTRWLHLHRNQLTKLEPGVFDSLTQLTYLNLGGNQLTALPVGVFDKLTNLKELKLYSNQLQALSEGLFDRLGKLQHLDLSKNQLKSIPHGAFDRLSSLTHAYLFGNPWDCECRDIMYLRNWVADHTSIVMRWDGKAVNDPDSAKCAGTNTPVRAVTEASTSPSKCPGYVAT
Regarding B1, the Kd worked out at 68.2 nM.

B2: VLR-Fc-30 (Fc fusion)
chain: B1 chain with R32Q, W33I, H35R, H37Y, L41I
Consider B2, for which the Kd came out at 5.4 nM.

B3: VLR-Fc-11 (Fc fusion)
chain: B1 chain with T12E, D14R, S16E, G17S, K18R, T25A, W33R
In the case of B3, the Kd was 10.4 nM.
